Experimental data from patent publication US20230141177A1.

Columns and labels:
[1] = target: Aβ aggregates in the high molecular weight (HMW) fraction of pooled soluble human AD brain extract (>70 kDa to ~700 kDa) (human) (UniProt P05067); assay: sandwich SPR: HMW material captured by immobilized Clone 4, detected by aducanumab
[2] = target: AβO in the low molecular weight (LMW) fraction of pooled soluble human AD brain extract (~8 kDa to ~70 kDa) (human) (UniProt P05067); assay: sandwich SPR: LMW material captured by immobilized Parental, detected by aducanumab
[3] = target: AβO in the low molecular weight (LMW) fraction of pooled soluble human AD brain extract (~8 kDa to ~70 kDa) (human) (UniProt P05067); assay: sandwich SPR: LMW material captured by immobilized Clone 14, detected by aducanumab
[4] = target: Aβ aggregates in the high molecular weight (HMW) fraction of pooled soluble human AD brain extract (>70 kDa to ~700 kDa) (human) (UniProt P05067); assay: sandwich SPR: HMW material captured by immobilized Clone 14, detected by aducanumab
[5] = target: Aβ aggregates in the high molecular weight (HMW) fraction of pooled soluble human AD brain extract (>70 kDa to ~700 kDa) (human) (UniProt P05067); assay: sandwich SPR: HMW material captured by immobilized Parental, detected by aducanumab
[6] = target: Aβ aggregates in the high molecular weight (HMW) fraction of pooled soluble human AD brain extract (>70 kDa to ~700 kDa) (human) (UniProt P05067); assay: sandwich SPR: HMW material captured by immobilized Clone 5, detected by aducanumab
[7] = target: AβO in the low molecular weight (LMW) fraction of pooled soluble human AD brain extract (~8 kDa to ~70 kDa) (human) (UniProt P05067); assay: sandwich SPR: LMW material captured by immobilized Clone 4, detected by aducanumab

Aducanumab (antibody)
Bound Ab detection by aducanumab, HMW (BRU) [1]: 10.4 BRU | Bound Ab detection by aducanumab, LMW (BRU) [2]: 5.8 BRU | Bound Ab detection by aducanumab, LMW (BRU) [3]: 4.4 BRU | Bound Ab detection by aducanumab, HMW (BRU) [4]: 5.7 BRU | Bound Ab detection by aducanumab, HMW (BRU) [5]: 8.3 BRU | Bound Ab detection by aducanumab, HMW (BRU) [6]: 1.25 BRU | Bound Ab detection by aducanumab, LMW (BRU) [7]: 7.7 BRU
